# Laboratory results from article PMC2654063, “Three New Structures of Left-Handed RadA Helical Filaments: Structural Flexibility of N-Terminal Domain Is Critical for Recombinase Activity” (PLoS ONE, 2009).
# Substrate: Nc1ncnc2c1ncn2[C@@H]1O[C@H](COP(=O)(O)OP(=O)(O)OP(=O)(O)O)[C@@H](O)[C@H]1O
# Assay: purified protein
# Format: biochemical, Saccharolobus solfataricus
# Conditions: with ssDNA; labelled compound
Protein,Km [µM],kcat [s⁻¹]
"SsoRadA (Sulfolobus solfataricus RadA) (Saccharolobus solfataricus P2) (protein, purified recombinant protein; homo-oligomeric nucleoprotein filament on ssDNA; F73, R72, R83 given) MSNEVEQKKNIKTINDLPGISQTVINKLIEAGYSSLETLAVASPQDLSVAAGIPLSTAQKIIKEARDALDIRFKTALEVKKERMNVKKISTGSQALDGLLAGGIETRTMTEFFGEFGSGKTQLCHQLSVNVQLPPEKGGLSGKAVYIDTEGTFRWERIENMAKALGLDIDNVMNNIYYIRAINTDHQIAIVDDLQELVSKDPSIKLIVVDSVTSHFRAEYPGRENLAVRQQKLNKHLHQLTRLAEVYDIAVIITNQVMARPDMFYGDPTVAVGGHTLYHVPGIRIQLKKSRGNRRIARVVDAPHLPEGEVVFALTEEGIRDAEE",398 ± 52,0.000617 ± 5e-05
"SsoRadA (Sulfolobus solfataricus RadA) (Saccharolobus solfataricus P2; R72P) (protein, purified recombinant protein; homo-oligomeric nucleoprotein filament on ssDNA; F73, R72, R83 given) MSNEVEQKKNIKTINDLPGISQTVINKLIEAGYSSLETLAVASPQDLSVAAGIPLSTAQKIIKEARDALDIPFKTALEVKKERMNVKKISTGSQALDGLLAGGIETRTMTEFFGEFGSGKTQLCHQLSVNVQLPPEKGGLSGKAVYIDTEGTFRWERIENMAKALGLDIDNVMNNIYYIRAINTDHQIAIVDDLQELVSKDPSIKLIVVDSVTSHFRAEYPGRENLAVRQQKLNKHLHQLTRLAEVYDIAVIITNQVMARPDMFYGDPTVAVGGHTLYHVPGIRIQLKKSRGNRRIARVVDAPHLPEGEVVFALTEEGIRDAEE",143 ± 10,0.000267 ± 1.7e-05
"SsoRadA (Sulfolobus solfataricus RadA) (Saccharolobus solfataricus P2; R72A) (protein, purified recombinant protein; homo-oligomeric nucleoprotein filament on ssDNA; F73, R72, R83 given) MSNEVEQKKNIKTINDLPGISQTVINKLIEAGYSSLETLAVASPQDLSVAAGIPLSTAQKIIKEARDALDIAFKTALEVKKERMNVKKISTGSQALDGLLAGGIETRTMTEFFGEFGSGKTQLCHQLSVNVQLPPEKGGLSGKAVYIDTEGTFRWERIENMAKALGLDIDNVMNNIYYIRAINTDHQIAIVDDLQELVSKDPSIKLIVVDSVTSHFRAEYPGRENLAVRQQKLNKHLHQLTRLAEVYDIAVIITNQVMARPDMFYGDPTVAVGGHTLYHVPGIRIQLKKSRGNRRIARVVDAPHLPEGEVVFALTEEGIRDAEE",37 ± 11,0.000183 ± 3.3e-05
"SsoRadA (Sulfolobus solfataricus RadA) (Saccharolobus solfataricus P2; R72G) (protein, purified recombinant protein; homo-oligomeric nucleoprotein filament on ssDNA; F73, R72, R83 given) MSNEVEQKKNIKTINDLPGISQTVINKLIEAGYSSLETLAVASPQDLSVAAGIPLSTAQKIIKEARDALDIGFKTALEVKKERMNVKKISTGSQALDGLLAGGIETRTMTEFFGEFGSGKTQLCHQLSVNVQLPPEKGGLSGKAVYIDTEGTFRWERIENMAKALGLDIDNVMNNIYYIRAINTDHQIAIVDDLQELVSKDPSIKLIVVDSVTSHFRAEYPGRENLAVRQQKLNKHLHQLTRLAEVYDIAVIITNQVMARPDMFYGDPTVAVGGHTLYHVPGIRIQLKKSRGNRRIARVVDAPHLPEGEVVFALTEEGIRDAEE",176 ± 23,0.000267 ± 1.7e-05
